Reference: patent US20130011412A1 (Genentech, published 2013)

T1: recombinant human lymphotoxin-α homotrimer (human LTα3) (human, UniProt P01374 35-205)
T1 construct: Coated on plates in the ELISAs; also called rhLTα; lymphotoxin-α3 trimer
T1 sequence (looked up): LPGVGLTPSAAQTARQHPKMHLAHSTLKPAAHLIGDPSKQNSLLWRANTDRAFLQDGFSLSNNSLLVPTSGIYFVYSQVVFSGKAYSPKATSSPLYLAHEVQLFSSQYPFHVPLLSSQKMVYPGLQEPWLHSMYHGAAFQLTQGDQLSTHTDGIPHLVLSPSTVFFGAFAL

B1: 3F12 version 13 (3F12.v5 with Y31A, CDR-L1) (antibody, IgG1, V domains shown)
VH: EVQLVESGGGLVQPGGSLRLSCAASGYTFSSYWIEWVRQAPGKGLEWVGEISPGSGSTNYNEEFKGRATFSADNSKNTAYLQMNSLRAEDTAVYYCADGYHGYWGQGTLVTVSS
VL: DIQMTQSPSSLSASVGDRVTITCKSSQSLLASTNQKNFLAWYQQKPGKAPKLLIYWASTRDSGVPSRFSGSGSGTDFTLTISSLQPEDFATYYCQQYYSYPRTFGQGTKVEIK
notes: Alanine-scan variant of 3F12.v5; human kappa / IgG1
B2: 3F12 version 20 (3F12.v5 with Y92A, CDR-L3) (antibody, IgG1, V domains shown)
VH: EVQLVESGGGLVQPGGSLRLSCAASGYTFSSYWIEWVRQAPGKGLEWVGEISPGSGSTNYNEEFKGRATFSADNSKNTAYLQMNSLRAEDTAVYYCADGYHGYWGQGTLVTVSS
VL: DIQMTQSPSSLSASVGDRVTITCKSSQSLLYSTNQKNFLAWYQQKPGKAPKLLIYWASTRDSGVPSRFSGSGSGTDFTLTISSLQPEDFATYYCQQYASYPRTFGQGTKVEIK
notes: Alanine-scan variant of 3F12.v5; human kappa / IgG1; also called 3F12 clone 20
B3: 3F12 version 12 (3F12.v5 with Y102A, CDR-H3) (antibody, IgG1, V domains shown)
VH: EVQLVESGGGLVQPGGSLRLSCAASGYTFSSYWIEWVRQAPGKGLEWVGEISPGSGSTNYNEEFKGRATFSADNSKNTAYLQMNSLRAEDTAVYYCADGYHGAWGQGTLVTVSS
VL: DIQMTQSPSSLSASVGDRVTITCKSSQSLLYSTNQKNFLAWYQQKPGKAPKLLIYWASTRDSGVPSRFSGSGSGTDFTLTISSLQPEDFATYYCQQYYSYPRTFGQGTKVEIK
notes: Alanine-scan variant of 3F12.v5; human kappa / IgG1; also called 3F12 clone 12
B4: 3F12 version 21 (3F12.v5 with S93A, CDR-L3) (antibody, IgG1, V domains shown)
VH: EVQLVESGGGLVQPGGSLRLSCAASGYTFSSYWIEWVRQAPGKGLEWVGEISPGSGSTNYNEEFKGRATFSADNSKNTAYLQMNSLRAEDTAVYYCADGYHGYWGQGTLVTVSS
VL: DIQMTQSPSSLSASVGDRVTITCKSSQSLLYSTNQKNFLAWYQQKPGKAPKLLIYWASTRDSGVPSRFSGSGSGTDFTLTISSLQPEDFATYYCQQYYAYPRTFGQGTKVEIK
notes: Alanine-scan variant of 3F12.v5; human kappa / IgG1; also called 3F12 clone 21
B5: 3F12 version 18 (3F12.v5 with Q89A, CDR-L3) (antibody, IgG1, V domains shown)
VH: EVQLVESGGGLVQPGGSLRLSCAASGYTFSSYWIEWVRQAPGKGLEWVGEISPGSGSTNYNEEFKGRATFSADNSKNTAYLQMNSLRAEDTAVYYCADGYHGYWGQGTLVTVSS
VL: DIQMTQSPSSLSASVGDRVTITCKSSQSLLYSTNQKNFLAWYQQKPGKAPKLLIYWASTRDSGVPSRFSGSGSGTDFTLTISSLQPEDFATYYCAQYYSYPRTFGQGTKVEIK
notes: as for B1
B6: 3F12 version 17 (3F12.v5 with F38A, CDR-L1) (antibody, IgG1, V domains shown)
VH: EVQLVESGGGLVQPGGSLRLSCAASGYTFSSYWIEWVRQAPGKGLEWVGEISPGSGSTNYNEEFKGRATFSADNSKNTAYLQMNSLRAEDTAVYYCADGYHGYWGQGTLVTVSS
VL: DIQMTQSPSSLSASVGDRVTITCKSSQSLLYSTNQKNALAWYQQKPGKAPKLLIYWASTRDSGVPSRFSGSGSGTDFTLTISSLQPEDFATYYCQQYYSYPRTFGQGTKVEIK
notes: Alanine-scan variant of 3F12.v5; human kappa / IgG1; also called 3F12 clone 17
B7: 3F12 version 15 (3F12.v5 with N34A, CDR-L1) (antibody, IgG1, V domains shown)
VH: EVQLVESGGGLVQPGGSLRLSCAASGYTFSSYWIEWVRQAPGKGLEWVGEISPGSGSTNYNEEFKGRATFSADNSKNTAYLQMNSLRAEDTAVYYCADGYHGYWGQGTLVTVSS
VL: DIQMTQSPSSLSASVGDRVTITCKSSQSLLYSTAQKNFLAWYQQKPGKAPKLLIYWASTRDSGVPSRFSGSGSGTDFTLTISSLQPEDFATYYCQQYYSYPRTFGQGTKVEIK
notes: Alanine-scan variant of 3F12.v5; human kappa / IgG1; also called 3F12 clone 15
B8: 3F12 version 16 (3F12.v5 with K36A, CDR-L1) (antibody, IgG1, V domains shown)
VH: EVQLVESGGGLVQPGGSLRLSCAASGYTFSSYWIEWVRQAPGKGLEWVGEISPGSGSTNYNEEFKGRATFSADNSKNTAYLQMNSLRAEDTAVYYCADGYHGYWGQGTLVTVSS
VL: DIQMTQSPSSLSASVGDRVTITCKSSQSLLYSTNQANFLAWYQQKPGKAPKLLIYWASTRDSGVPSRFSGSGSGTDFTLTISSLQPEDFATYYCQQYYSYPRTFGQGTKVEIK
notes: as for B1
B9: 3F12 version 19 (3F12.v5 with Y91A, CDR-L3) (antibody, IgG1, V domains shown)
VH: EVQLVESGGGLVQPGGSLRLSCAASGYTFSSYWIEWVRQAPGKGLEWVGEISPGSGSTNYNEEFKGRATFSADNSKNTAYLQMNSLRAEDTAVYYCADGYHGYWGQGTLVTVSS
VL: DIQMTQSPSSLSASVGDRVTITCKSSQSLLYSTNQKNFLAWYQQKPGKAPKLLIYWASTRDSGVPSRFSGSGSGTDFTLTISSLQPEDFATYYCQQAYSYPRTFGQGTKVEIK
notes: as for B1
B10: 3F12 version 14 of Table 2 (3F12.v5 with T33A, CDR-L1) (antibody, IgG1, V domains shown)
VH: EVQLVESGGGLVQPGGSLRLSCAASGYTFSSYWIEWVRQAPGKGLEWVGEISPGSGSTNYNEEFKGRATFSADNSKNTAYLQMNSLRAEDTAVYYCADGYHGYWGQGTLVTVSS
VL: DIQMTQSPSSLSASVGDRVTITCKSSQSLLYSANQKNFLAWYQQKPGKAPKLLIYWASTRDSGVPSRFSGSGSGTDFTLTISSLQPEDFATYYCQQYYSYPRTFGQGTKVEIK
notes: Alanine-scan variant of 3F12.v5; human kappa / IgG1; also called 3F12 clone 14
B11: 3F12 version 22 (3F12.v5 with Y94A, CDR-L3) (antibody, IgG1, V domains shown)
VH: EVQLVESGGGLVQPGGSLRLSCAASGYTFSSYWIEWVRQAPGKGLEWVGEISPGSGSTNYNEEFKGRATFSADNSKNTAYLQMNSLRAEDTAVYYCADGYHGYWGQGTLVTVSS
VL: DIQMTQSPSSLSASVGDRVTITCKSSQSLLYSTNQKNFLAWYQQKPGKAPKLLIYWASTRDSGVPSRFSGSGSGTDFTLTISSLQPEDFATYYCQQYYSAPRTFGQGTKVEIK
notes: as for B1
B12: 3F12 version 9 (3F12.v5 with Y99A, CDR-H3) (antibody, IgG1, V domains shown)
VH: EVQLVESGGGLVQPGGSLRLSCAASGYTFSSYWIEWVRQAPGKGLEWVGEISPGSGSTNYNEEFKGRATFSADNSKNTAYLQMNSLRAEDTAVYYCADGAHGYWGQGTLVTVSS
VL: DIQMTQSPSSLSASVGDRVTITCKSSQSLLYSTNQKNFLAWYQQKPGKAPKLLIYWASTRDSGVPSRFSGSGSGTDFTLTISSLQPEDFATYYCQQYYSYPRTFGQGTKVEIK
notes: as for B1
B13: 3F12 version 24 (3F12.v5 with G53A, CDR-H2) (antibody, IgG1, V domains shown)
VH: EVQLVESGGGLVQPGGSLRLSCAASGYTFSSYWIEWVRQAPGKGLEWVGEISPASGSTNYNEEFKGRATFSADNSKNTAYLQMNSLRAEDTAVYYCADGYHGYWGQGTLVTVSS
VL: DIQMTQSPSSLSASVGDRVTITCKSSQSLLYSTNQKNFLAWYQQKPGKAPKLLIYWASTRDSGVPSRFSGSGSGTDFTLTISSLQPEDFATYYCQQYYSYPRTFGQGTKVEIK
notes: as for B1
B14: 3F12 version 23 (3F12.v5 with R96A, CDR-L3) (antibody, IgG1, V domains shown)
VH: EVQLVESGGGLVQPGGSLRLSCAASGYTFSSYWIEWVRQAPGKGLEWVGEISPGSGSTNYNEEFKGRATFSADNSKNTAYLQMNSLRAEDTAVYYCADGYHGYWGQGTLVTVSS
VL: DIQMTQSPSSLSASVGDRVTITCKSSQSLLYSTNQKNFLAWYQQKPGKAPKLLIYWASTRDSGVPSRFSGSGSGTDFTLTISSLQPEDFATYYCQQYYSYPATFGQGTKVEIK
notes: as for B1
B15: 3F12 version 25 (3F12.v5 with G55A, CDR-H2) (antibody, IgG1, V domains shown)
VH: EVQLVESGGGLVQPGGSLRLSCAASGYTFSSYWIEWVRQAPGKGLEWVGEISPGSASTNYNEEFKGRATFSADNSKNTAYLQMNSLRAEDTAVYYCADGYHGYWGQGTLVTVSS
VL: DIQMTQSPSSLSASVGDRVTITCKSSQSLLYSTNQKNFLAWYQQKPGKAPKLLIYWASTRDSGVPSRFSGSGSGTDFTLTISSLQPEDFATYYCQQYYSYPRTFGQGTKVEIK
notes: as for B1

Biological target: T1, recombinant human lymphotoxin-α …
Test: plate-based ELISA against LTα

Going from B1 to B2, the “relative binding (EC50 of the variant / EC50 of version 5)” value falls from 3.4 ratio to 0.71 ratio.

First: B3
Second: B4
The “relative binding (EC50 of the variant / EC50 of version 5)” value of the first is lower: 0.81 ratio for the first, 0.82 ratio for the second.

Going from B5 to B6, the “relative binding (EC50 of the variant / EC50 of version 5)” value falls from 4.2 ratio to 0.32 ratio.

First: B7
Second: B8
The “relative binding (EC50 of the variant / EC50 of version 5)” value of the first is lower: 0.49 ratio for the first, 3.7 ratio for the second.

Compared with B9, B10 is lower in “relative binding (EC50 of the variant / EC50 of version 5)” value: 2.3 ratio for the first, 0.72 ratio for the second.

Compared with B11, B12 is lower in “relative binding (EC50 of the variant / EC50 of version 5)” value: 14.3 ratio for the first, 10 ratio for the second.

First: B13
Second: B14
The “relative binding (EC50 of the variant / EC50 of version 5)” value of the first is higher: 34.1 ratio for the first, 18.2 ratio for the second.

B15 was tested, and the “relative binding (EC50 of the variant / EC50 of version 5)” value was 1.2 ratio.
